Assay results taken from the supplement of paper PMC10219994.
± gives the standard deviation of the averaged measurements.

B1: library; a variant is named by its letters at N, in order (parent)
chain: GAGACCGCAACTGAAAAGTTGTGGNNNNNATAGTGAGTCGCTGCCTGCAAAGACACAACT

Variants of: B1
Assay: ligation selection enrichment (abundance after / before one-round selection) (fold); higher = more template-directed ligation activity
Settings: with T7Psub CACGGAUGCUAAUACGACUCACUAUA; MgCl2 25 mM; 42 °C; 4 h; pH 8.5
In short: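 In each of two independent experiments, 6 μM RNA substrate was reacted for 4 h at 42 °C with 0.75 μM of a T7-transcribed RNA ligase library randomized at five core positions, in buffer containing 50 mM EPPS pH 8.5 and 25 mM MgCl2. Only reads scoring ≥30 in quality at all randomized positions were counted after MiSeq sequencing. Each enrichment value is the ratio of abundance after ligation to abundance before ligation.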

Row | Variant | ligation selection enrichment
1 | AATCG | 0.816 ± 0.11
2 | GTGGT | 0.274 ± 0.0063
3 | AGTGG | 0.414 ± 0.077
4 | GTATG | 1.4 ± 0.24
5 | TGTCT | 0.335 ± 0.099
6 | GCGGT | 0.186 ± 0.11
7 | AACCG | 0.526 ± 0.039
8 | TTCAT | 3.73 ± 1.1
